Assay results: patent publication US20120207760A1

What was measured:
[1] = molecular target: recombinant homotrimeric HA, A/Anhui/1/05 H5N1 (Influenza A virus A/Anhui/1/05 (H5N1)); assay: trimeric HA microarray, transfection set 3
[2] = molecular target: recombinant homotrimeric HA, A/California/4/09 H1N1 (Influenza A virus A/California/4/09 (H1N1)); assay: trimeric HA microarray, transfection set 3
[3] = molecular target: recombinant homotrimeric HA, A/Egypt/3300-NAMRU3/08 H5N1 (Influenza A virus A/Egypt/3300-NAMRU3/08 (H5N1)); assay: trimeric HA microarray, transfection set 3
[4] = molecular target: recombinant homotrimeric HA, A/Hong Kong/1073/99 H9N2 (Influenza A virus A/Hong Kong/1073/99 (H9N2)); assay: trimeric HA microarray, transfection set 3
[5] = molecular target: recombinant homotrimeric HA, A/Hong Kong/2108/03 H9N2 (Influenza A virus A/Hong Kong/2108/03 (H9N2)); assay: trimeric HA microarray, transfection set 3
[6] = molecular target: recombinant homotrimeric HA, A/Indonesia/5/05 H5N1 (Influenza A virus A/Indonesia/5/05 (H5N1)); assay: trimeric HA microarray, transfection set 3
[7] = molecular target: recombinant homotrimeric HA, A/Japan/305/57 H2N2 (Influenza A virus A/Japan/305/57 (H2N2)); assay: trimeric HA microarray, transfection set 3
[8] = molecular target: recombinant homotrimeric HA, A/Netherlands/219/03 H7N7 (Influenza A virus A/Netherlands/219/03 (H7N7)); assay: trimeric HA microarray, transfection set 3
[9] = molecular target: recombinant homotrimeric HA, A/Solomon Islands/3/06 H1N1 (Influenza A virus A/Solomon Islands/3/06 (H1N1)); assay: trimeric HA microarray, transfection set 3
[10] = molecular target: recombinant homotrimeric HA, A/South Carolina/1/18 H1N1 (Influenza A virus A/South Carolina/1/18 (H1N1)); assay: trimeric HA microarray, transfection set 3
[11] = molecular target: recombinant homotrimeric HA, A/Vietnam/1203/04 H5N1 (Influenza A virus A/Vietnam/1203/04 (H5N1)); assay: trimeric HA microarray, transfection set 3
[12] = molecular target: recombinant homotrimeric HA, A/Wisconsin/67/05 H3N2 (Influenza A virus A/Wisconsin/67/05 (H3N2)); assay: trimeric HA microarray, transfection set 3
[13] = molecular target: recombinant homotrimeric HA, A/chicken/Vietnam/NCVD-016/08 H5N1 (Influenza A virus A/chicken/Vietnam/NCVD-016/08 (H5N1)); assay: trimeric HA microarray, transfection set 3
[14] = molecular target: recombinant homotrimeric HA, A/common magpie/Hong Kong/5052/07 H5N1 (Influenza A virus A/common magpie/Hong Kong/5052/07 (H5N1)); assay: trimeric HA microarray, transfection set 3
[15] = molecular target: recombinant homotrimeric HA, A/duck/Yangzhou/02/05 H8N4 (Influenza A virus A/duck/Yangzhou/02/2005 (H8N4)); assay: trimeric HA microarray, transfection set 3
[16] = molecular target: recombinant homotrimeric HA, A/northern shoveler/California/HKWF115/07 (Influenza A virus A/northern shoveler/California/HKWF115/2007 (H6N1)); assay: trimeric HA microarray, transfection set 3
[17] = molecular target: recombinant homotrimeric HA, A/swine/Ontario/01911-2/99 H4N6 (Influenza A virus A/swine/Ontario/01911-2/99 (H4N6)); assay: trimeric HA microarray, transfection set 3
[18] = molecular target: recombinant homotrimeric HA, A/California/4/09 H1N1 (Influenza A virus A/California/4/09 (H1N1)); assay: trimeric HA microarray, transfection set 5
[19] = molecular target: recombinant homotrimeric HA, A/Indonesia/5/05 H5N1 (Influenza A virus A/Indonesia/5/05 (H5N1)); assay: trimeric HA microarray, transfection set 5
[20] = molecular target: recombinant homotrimeric HA, A/Japan/305/57 H2N2 (Influenza A virus A/Japan/305/57 (H2N2)); assay: trimeric HA microarray, transfection set 5
[21] = molecular target: recombinant homotrimeric HA, A/Wisconsin/67/05 H3N2 (Influenza A virus A/Wisconsin/67/05 (H3N2)); assay: trimeric HA microarray, transfection set 5
[22] = molecular target: recombinant homotrimeric HA, A/swine/Ontario/01911-2/99 H4N6 (Influenza A virus A/swine/Ontario/01911-2/99 (H4N6)); assay: trimeric HA microarray, transfection set 5
[23] = molecular target: recombinant soluble homotrimeric HA of A/Anhui/1/05 - H5N1 (Influenza A virus A/Anhui/1/2005 (H5N1)); assay: micro-array; captured IgG, V5-tagged trimeric HA
[24] = molecular target: recombinant soluble homotrimeric HA of A/Egypt/3300-NAMRU3/08 - H5N1 (Influenza A virus A/Egypt/3300-NAMRU3/2008 (H5N1)); assay: micro-array; captured IgG, V5-tagged trimeric HA
[25] = molecular target: recombinant soluble homotrimeric HA of A/Hong Kong/156/97 - H5N1 (Influenza A virus A/Hong Kong/156/97 (H5N1)); assay: micro-array; captured IgG, V5-tagged trimeric HA
[26] = molecular target: recombinant soluble homotrimeric HA of A/Netherlands/219/03 - H7N7 (Influenza A virus A/Netherlands/219/03 (H7N7)); assay: micro-array; captured IgG, V5-tagged trimeric HA
[27] = molecular target: recombinant soluble homotrimeric HA of A/chicken/Vietnam/NCVD-016/08 - H5N1 (Influenza A virus A/chicken/Vietnam/NCVD-016/2008 (H5N1)); assay: micro-array; captured IgG, V5-tagged trimeric HA
[28] = molecular target: recombinant soluble homotrimeric HA of A/duck/Yangzhou/02/2005 - H8N4 (Influenza A virus A/duck/Yangzhou/02/2005 (H8N4)); assay: micro-array; captured IgG, V5-tagged trimeric HA
[29] = molecular target: recombinant soluble homotrimeric HA of A/northern shoveler/California/HKWF115/2007 - H6N1 (Influenza A virus A/northern shoveler/California/HKWF115/2007 (H6N1)); assay: micro-array; captured IgG, V5-tagged trimeric HA
[30] = molecular target: hemagglutinin (HA) of influenza A/Japan/305/57 H2N2 (Influenza A virus A/Japan/305/1957 (H2N2)) (UniProt P03451); assay: ELISA, inactivated whole virions coated; transfection supernatant set 4
[31] = molecular target: hemagglutinin (HA) of influenza A/Solomon Islands/3/06 H1N1 (Influenza A virus A/Solomon Islands/3/2006 (H1N1)); assay: as above
[32] = molecular target: hemagglutinin (HA) of influenza A/Wisconsin/67/05 H3N2 (Influenza A virus A/Wisconsin/67/2005 (H3N2)); assay: as above

TCN-202 (2N9) (antibody)
Trimeric HA Binding RLU [1]: 33 RLU
Trimeric HA Binding RLU [2]: 205 RLU
Trimeric HA Binding RLU [3]: 63 RLU
Trimeric HA Binding RLU [4]: 57 RLU
Trimeric HA Binding RLU [5]: 30 RLU
Trimeric HA Binding RLU [6]: 43 RLU
Trimeric HA Binding RLU [7]: 42 RLU
Trimeric HA Binding RLU [8]: 247 RLU
Trimeric HA Binding RLU [9]: 57 RLU
Trimeric HA Binding RLU [10]: 731 RLU
Trimeric HA Binding RLU [11]: 967 RLU
Trimeric HA Binding RLU [12]: 51 RLU
Trimeric HA Binding RLU [13]: 14 RLU
Trimeric HA Binding RLU [14]: 16 RLU
Trimeric HA Binding RLU [15]: 66 RLU
Trimeric HA Binding RLU [16]: 73 RLU
Trimeric HA Binding RLU [17]: 54 RLU
Trimeric HA Binding RLU [18]: 733 RLU
Trimeric HA Binding RLU [19]: 1970 RLU
Trimeric HA Binding RLU [20]: 1880 RLU
Trimeric HA Binding RLU [21]: 581 RLU
Trimeric HA Binding RLU [22]: 2690 RLU
Trimeric HA Binding: RLU [23]: 10000 RLU
Trimeric HA Binding: RLU [24]: 13900 RLU
Trimeric HA Binding: RLU [25]: 945 RLU
Trimeric HA Binding: RLU [26]: 18000 RLU
Trimeric HA Binding: RLU [27]: 2570 RLU
Trimeric HA Binding: RLU [28]: 13800 RLU
Trimeric HA Binding: RLU [29]: 3040 RLU
OD450 [30]: 0.08 OD450
OD450 [31]: 0.1 OD450
OD450 [32]: 0.07 OD450
